Assay results from patent US20140287434.

Legend:
[1] = system: Lck peptide substrate (YIYGSFK) attached to the carboxy-terminus of the Itk SH2 domain

Chain of FLAG-tagged Btk full-length enzyme (Q06187 whole entry, the tested form may be a part): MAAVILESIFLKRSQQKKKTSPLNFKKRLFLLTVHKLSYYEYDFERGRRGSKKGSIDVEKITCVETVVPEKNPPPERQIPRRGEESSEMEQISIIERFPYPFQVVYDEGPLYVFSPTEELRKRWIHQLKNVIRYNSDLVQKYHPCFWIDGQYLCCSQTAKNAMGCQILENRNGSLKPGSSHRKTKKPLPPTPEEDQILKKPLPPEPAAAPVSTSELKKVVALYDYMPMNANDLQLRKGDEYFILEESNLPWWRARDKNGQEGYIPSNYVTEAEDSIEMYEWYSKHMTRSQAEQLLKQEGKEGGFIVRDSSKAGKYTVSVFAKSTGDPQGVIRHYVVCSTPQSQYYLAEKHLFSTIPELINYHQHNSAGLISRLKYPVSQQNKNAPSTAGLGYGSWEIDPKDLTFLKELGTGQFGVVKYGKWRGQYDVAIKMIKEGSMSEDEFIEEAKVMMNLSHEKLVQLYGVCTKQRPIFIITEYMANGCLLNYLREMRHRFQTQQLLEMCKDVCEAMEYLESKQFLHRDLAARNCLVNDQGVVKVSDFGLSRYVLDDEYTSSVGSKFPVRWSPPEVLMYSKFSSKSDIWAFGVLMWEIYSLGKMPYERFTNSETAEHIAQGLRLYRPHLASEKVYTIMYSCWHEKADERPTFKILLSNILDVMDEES

FLAG-tagged Btk full-length enzyme
phosphorylation on Y223 in an in vitro kinase assay (Btk SH3-SH2 (Btk 32)): only substrates that contain both the site of phosphorylation (Y180 for Itk, Y187 for Tec, Y223 for Btk, and Y783 for PLCγ1) and the adjacent SH2 domain are phosphorylated by the Tec kinases | phosphorylation on Y223 in an in vitro kinase assay (Btk SH3): are not phosphorylated by the Tec and Btk kinases

His-tagged wild type Lck kinase domain
phosphorylation by Lck kinase domain (32P, scintillation counting) against the free peptide YIYGSFK [1]: most efficiently phosphorylated when attached to the carboxy-terminus of the SH2 domain and this tethered substrate is a better substrate by an order of magnitude
